Measured values as given in patent publication US20090100532A1, “TRANSGENIC MICE EXPRESSING HYPERSENSITIVE NICOTINIC RECEPTORS” (CALIFORNIA INSTITUTE OF TECHNOLOGY, priority 2007, published 2009).

How the values were obtained:
[1] = target: α4-CFP (mouse) (UniProt O70174); experiment: acceptor photobleaching FRET, N2a cells, untagged β2 coexpressed
[2] = target: CFP-labeled GluCl β subunit (UniProt Q17328); experiment: acceptor photobleaching FRET, N2a cells; specificity control
[3] = target: β2-CFP (mouse) (UniProt Q9ERK7); experiment: acceptor photobleaching FRET, N2a cells, within the same α4β2 pentamer
β2-CFP (mouse), sequence (Q9ERK7 26-501): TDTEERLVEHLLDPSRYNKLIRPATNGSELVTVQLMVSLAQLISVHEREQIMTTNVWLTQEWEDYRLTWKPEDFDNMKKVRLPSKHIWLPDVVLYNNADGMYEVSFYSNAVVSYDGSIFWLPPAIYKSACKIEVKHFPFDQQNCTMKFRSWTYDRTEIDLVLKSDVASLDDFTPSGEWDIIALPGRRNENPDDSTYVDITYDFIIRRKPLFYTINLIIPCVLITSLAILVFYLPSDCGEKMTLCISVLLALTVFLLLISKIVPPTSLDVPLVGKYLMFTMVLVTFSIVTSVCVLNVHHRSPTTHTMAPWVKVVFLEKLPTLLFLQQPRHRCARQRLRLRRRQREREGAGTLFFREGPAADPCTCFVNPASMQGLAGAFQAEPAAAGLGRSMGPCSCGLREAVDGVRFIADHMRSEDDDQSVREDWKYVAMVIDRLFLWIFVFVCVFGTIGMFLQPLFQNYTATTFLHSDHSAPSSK

CFP-labeled GluCl β subunit, sequence (Q17328 23-434): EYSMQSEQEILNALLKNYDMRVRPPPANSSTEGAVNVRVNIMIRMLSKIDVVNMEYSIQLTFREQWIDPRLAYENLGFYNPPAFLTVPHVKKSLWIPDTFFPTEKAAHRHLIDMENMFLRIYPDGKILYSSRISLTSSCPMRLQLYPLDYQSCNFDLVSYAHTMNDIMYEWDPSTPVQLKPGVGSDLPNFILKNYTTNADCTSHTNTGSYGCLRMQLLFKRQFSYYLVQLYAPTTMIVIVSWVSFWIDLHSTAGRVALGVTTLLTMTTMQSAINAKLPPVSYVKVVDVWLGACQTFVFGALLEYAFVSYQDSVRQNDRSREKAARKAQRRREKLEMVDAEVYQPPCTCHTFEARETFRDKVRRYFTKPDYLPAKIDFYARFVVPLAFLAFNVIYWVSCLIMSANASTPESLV
β2-YFP, sequence (Q9ERK7 26-501): as the sequence (Q9ERK7 26-501) above
α4-CFP (mouse), sequence (O70174 31-629): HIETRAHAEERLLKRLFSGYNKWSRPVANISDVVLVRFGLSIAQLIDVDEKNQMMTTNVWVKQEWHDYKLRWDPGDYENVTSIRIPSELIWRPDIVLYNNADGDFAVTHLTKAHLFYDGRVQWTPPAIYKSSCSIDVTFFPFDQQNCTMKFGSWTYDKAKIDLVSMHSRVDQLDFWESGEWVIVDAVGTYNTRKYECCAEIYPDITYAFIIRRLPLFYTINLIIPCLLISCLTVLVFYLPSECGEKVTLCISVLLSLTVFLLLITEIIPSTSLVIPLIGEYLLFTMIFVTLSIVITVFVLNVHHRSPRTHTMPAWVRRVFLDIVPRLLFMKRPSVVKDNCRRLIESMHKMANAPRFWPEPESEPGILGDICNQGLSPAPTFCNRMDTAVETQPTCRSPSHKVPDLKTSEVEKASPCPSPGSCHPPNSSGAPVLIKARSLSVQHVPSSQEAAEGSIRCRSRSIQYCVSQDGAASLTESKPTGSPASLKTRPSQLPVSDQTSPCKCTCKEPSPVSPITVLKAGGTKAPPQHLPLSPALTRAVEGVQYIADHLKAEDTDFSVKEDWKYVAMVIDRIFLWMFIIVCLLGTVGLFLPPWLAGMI
α4-YFP, sequence (O70174 31-629): as above

Substance | FRET E [2] | further results
α4-YFP (from UniProt O70174 31-629) (receptor) | – | FRET E [1]: 22.2%
α6-YFP^A405 (from UniProt Q9R0W9 31-405; Q9R0W9 406-494) (receptor) | 14% | –
β2-YFP (from UniProt Q9ERK7 26-501) (receptor) | – | FRET E [3]: 16.3%
β3-YFP^P379 (from UniProt Q8BMN3 31-379; Q8BMN3 380-464) (receptor) | 6% | –
